Experimental data reported in patent publication WO2008074868A1 (dated 2008).
Residue numbers refer to the chain shown, from its start.

B1: 4B1 (VHH)
VHH: EVQLVESGGGLVQPGGSLRLSCVAAGFTLDYYAIGWFRQAPGKEREGVSCITSDGRTYYADSVKGRFTISRDMAKKMVYLQMNSLKPEDTAVYYCAAGACMGGSGYEADFGSWGQGTQVTVSS
notes: Tested as periplasmic extract; also called 4Bl
B2: 4B10 (VHH)
VHH: EVQLVESGGGLVQAGDSLRLSCAASGRTFSSYAMGWFRQAPGTERQFVARITGKGDSTDYADSVRGRFTISRDNAKNTVYLQMNSLKPEDTAVYYCAADAFNSLLQAGRAEYWGQGTQVTVSS
notes: Tested as periplasmic extract; also called 4B1Θ
B3: 4C3 (VHH)
VHH: EVQLVESGGGLVQAGGSLRLSCAASGRTFSSYAMAWFRQAPGEEREFVATISVSGGYTYYADSVKGRFTISRDNAKNTVYLQMNTLKPEDTAVYYCAAGDSSSWLEHMYDYWGQGTQVTVSS
notes: Tested as periplasmic extract
B4: 4C9 (VHH)
VHH: EVQLVESGGGLVQAGDSLRLSCTASERPFSTYVMGWFRRAPGKEREFVGGITWSGINAWYTDSVLGRFTISSDNAKNTVYLQMNSLKPEDTAVYYCAAASGVGRYRYELQYDYWGQGTQVTVSS
notes: Tested as periplasmic extract
B5: 4A6 (VHH)
VHH: B1 VHH with V23A, A25S, G26P, I51S, D54H, R56K, Y59H, M73N, K76N, M77T
notes: Tested as periplasmic extract; also called 4Aό
B6: 4B8 (VHH)
VHH: EVQLVESGGGLVQAGGSLRLSCAASGGTYSGNAMAWFRQAPGKEREFVAGIDWSSENTRYIDSVKGRFTISRDNAKNTMYLQMNSLKPEDTAVYYCAAGTSWGALASRLEAAYSSWGQGTQVTVSS
notes: Tested as periplasmic extract
B7: 4B5 (VHH)
VHH: B6 VHH with G16D, G27R, G31R, N77S
notes: Tested as periplasmic extract
B8: 4B6 (VHH)
VHH: B6 VHH with E1K, A14V, A23V, G27R, S30G, I61T, A111N, S115A
notes: Tested as periplasmic extract
B9: 4C8 (VHH)
VHH: EVQLVESGGGLVQAGDSLRLSCAASGRTYTPYVMGWFRRAPGKEREFVGAVSWSGTNTWYTDSVKGRFTISRDNAKNTVYLQMNSLKPEDTAVYYCAAGDGVGIYRYEHQYDYWGQGTQVTVSS
notes: Tested as periplasmic extract
B10: 4C4 (VHH)
VHH: EVQLVESGGGLVQAGDSLRLSCAASGRPFMSYVMGWFRRAPGKEREFVGGINWGSGNTWYTDSVLGRFTISRDNAKNTVYLQMNSLKPEDTAVYYCATAAGVGYYRYERQYDYWGQGTQVTVSS
notes: Tested as periplasmic extract
B11: 4C5 (VHH)
VHH: B10 VHH with M30S, S31A, G54N, G56A, R72K, T98A, A100G
notes: Tested as periplasmic extract; also called 4CS
B12: 1E7 (VHH)
VHH: EVQLVESGGGLVQAGGSLRLSCAASGRTFSNYVMGWFRQAPGKEREFVAAISWSGVTTYHYSADSVKGRFTTSRDNDRNTAHLQMNSLKPEDTAVYYCAARGRTGSDPRKGDDYDYWGQGTQVTVSS
B13: 1D2 (VHH)
VHH: EVQLVESGGGLVQPGGSLRLSCAASGFTLDYYAIGWFRRAPGKEREGVSCTSSSDGSTYYADSVKGRFTISRDNAKNTVYLQMNSLKPEDTAVYYCATTFGDACTVVAGIPDQYDFGSWGQGTQVTVSS
B14: 4A9 (VHH)
VHH: EVQLVESGGGLVQAGGSLRLSCEASGFTLDYSGVGWFRQAPGKERELVSCISRGGDRAGYANSVKGRFTMSRDNAKNILYLQMNSLKPEDTAVYYCAATHSGSGCYDGAIDYWGKGTLVTVSS
B15: 4B7 (VHH)
VHH: EVQLVESGGGLVQAGGSLRLSCAASGFTFDDYAIGWFRQAPGKEREGVSCISSRDGITYYADSVKGRFTISSDNAKNTVYLQMNSLKPEDTAVYYCAADLVGSFPCPVAAYDYWGQGTQVTVSS
B16: 1D7 (VHH)
VHH: EVQLVESGGGLVQSGGSLRLSCAASGRAFNYYAMGWFRQAPGKERELVAVINWSGGTTSYADSVKGRFTISRSNAKNTVYLQMSSLKPEDTAVYYCAADSIYRTSKDYNYWGQGTQVTVSS
B17: 4D9 (VHH)
VHH: B13 VHH with A33D, R39Q
notes: Purified Nanobody

These binders were tested against T1, human serum albumin (human, UniProt P02768 25-609) (assay: SPR (Biacore T100) over immobilized human serum albumin, pH 7, pH 6 and pH 5).
T1 construct: also called HSA

Row | binding result | Binder
1 | binds | B1
2 | binds | B2

The binders below were run against T1, human serum albumin (assay: SPR (Biacore T100), periplasmic extracts over immobilized human serum albumin).

Row | binding result | Binder
3 | binds | B3
4 | binds | B4
5 | binds | B5
6 | binds | B6
7 | binds | B7
8 | binds | B8
9 | binds | B9
10 | binds | B10
11 | binds | B11

The binders below were run against T2, human plgR overexpressed in MDCK cells (human, UniProt P01833 19-764) (assay: immunofluorescence on MDCK cells overexpressing human plgR, 3 uM Nanobody at 4C).
T2 construct: whole, on cells; also called hpIgR; human polymeric immunoglobulin receptor
T2 sequence (P01833 19-764): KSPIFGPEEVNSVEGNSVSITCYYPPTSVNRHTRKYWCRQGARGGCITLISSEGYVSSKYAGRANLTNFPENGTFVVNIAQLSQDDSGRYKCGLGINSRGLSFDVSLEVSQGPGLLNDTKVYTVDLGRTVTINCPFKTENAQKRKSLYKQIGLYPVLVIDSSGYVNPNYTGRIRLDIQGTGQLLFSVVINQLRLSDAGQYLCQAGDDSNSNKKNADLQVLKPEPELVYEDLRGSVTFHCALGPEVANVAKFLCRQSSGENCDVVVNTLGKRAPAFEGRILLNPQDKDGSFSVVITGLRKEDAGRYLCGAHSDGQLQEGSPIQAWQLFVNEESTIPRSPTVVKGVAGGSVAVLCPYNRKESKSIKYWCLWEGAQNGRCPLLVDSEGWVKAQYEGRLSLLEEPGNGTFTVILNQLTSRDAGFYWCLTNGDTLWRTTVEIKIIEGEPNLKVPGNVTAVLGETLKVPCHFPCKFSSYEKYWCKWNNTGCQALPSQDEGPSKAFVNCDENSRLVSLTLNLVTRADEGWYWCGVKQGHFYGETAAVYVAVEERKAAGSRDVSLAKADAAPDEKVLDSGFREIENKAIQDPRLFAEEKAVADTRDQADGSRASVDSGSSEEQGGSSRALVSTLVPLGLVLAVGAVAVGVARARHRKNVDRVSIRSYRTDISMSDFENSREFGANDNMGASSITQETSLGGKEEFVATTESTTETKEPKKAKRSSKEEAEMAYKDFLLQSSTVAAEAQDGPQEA

Row | binding result | Binder
12 | binds | B12
13 | binds | B13

These binders were tested against T1, human serum albumin (assay: SPR (Biacore T100), periplasmic extracts over immobilized human serum albumin, pH 7 and pH 5).

Row | fold difference in off rate (pH 5 against pH 7) [fold] | Binder
14 | 0.54 | B14

The binders below were run against T2, human plgR overexpressed in MDCK cells (assay: immunoprecipitation from cell lysates with His-tagged Nanobody and talon beads, blot with a-hSC).

Row | binding result | Binder
15 | binds | B15
16 | binds | B16

Each binder was assayed against T3, ectodomain of human plgR (R&D Systems Cat # 2717-PG) (human, UniProt P01833 19-638) (assay: competition ELISA, dilution series of purified Nanobody against IgA on immobilized plgR ectodomain).
T3 construct: extracellular domain; Immobilized at 5 ug/ml on Maxisorp plates; also called plgR ectodomain; pIgR
T3 sequence (P01833 19-638): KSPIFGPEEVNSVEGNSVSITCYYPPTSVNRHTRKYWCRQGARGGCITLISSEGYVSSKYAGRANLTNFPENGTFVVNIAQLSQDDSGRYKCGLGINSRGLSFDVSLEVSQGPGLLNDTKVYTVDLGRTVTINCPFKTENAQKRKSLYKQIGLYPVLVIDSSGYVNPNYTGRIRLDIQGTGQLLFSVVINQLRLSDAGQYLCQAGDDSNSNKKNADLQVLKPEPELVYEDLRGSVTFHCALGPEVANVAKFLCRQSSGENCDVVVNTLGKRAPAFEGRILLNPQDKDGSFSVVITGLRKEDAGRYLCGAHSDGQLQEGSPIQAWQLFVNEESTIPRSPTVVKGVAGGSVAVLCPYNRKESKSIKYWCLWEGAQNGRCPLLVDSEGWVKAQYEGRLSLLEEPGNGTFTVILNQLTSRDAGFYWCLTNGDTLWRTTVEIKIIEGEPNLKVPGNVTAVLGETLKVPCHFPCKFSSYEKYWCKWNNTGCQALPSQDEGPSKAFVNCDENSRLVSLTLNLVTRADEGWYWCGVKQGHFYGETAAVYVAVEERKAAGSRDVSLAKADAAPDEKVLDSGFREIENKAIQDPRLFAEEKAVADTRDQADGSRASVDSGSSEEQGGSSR

Row | binding result | Binder
17 | binds | B12
18 | binds | B13
19 | binds | B17
20 | binds | B16
